US9403884B2, “Peptides useful as cell-penetrating peptides” (Evonik Roehm GmbH, priority 2005, dated 2016)
fluorescein = fluorescein label (fluorescent marker on the peptide)

Key:
HeLa cells [1] = assay: Cytotoxicity of hLF-peptide, cell viability by MTT test; format: cell-based, human; settings: FIG. 6
Method: However, for live cell microscopy of peptide uptake mostly rather short incubation times of less than one hour were employed. It was therefore also tested whether for longer incubation times and higher concentrations, the peptide affected cell viability. HeLa cells were incubated with the hLF-peptide at concentrations ranging from 1.25 μM to up to 160 μM for either 6 or 0.5 hours. Afterwards cell viability was determined using an MTT test. The result thereof are depicted in FIG. 6.

HeLa cells [2] = assay: Cytotoxic effects observed during the uptake experiments (flow cytometry, live cell microscopy); format: cell-based, human; settings: concentration range of up to 40 μM, mostly incubation times of less than one hour

Fluo-KCFQWQRNMRKVRGPPVSCIKR-CONH2 (fluorescein-KCFQWQRNMRKVRGPPVSCIKR-NH2; cysteine pairing not given here; listed as Homo sapiens) [hLF-peptide]
cell viability (MTT) (HeLa cells [1]; after 6 hours, peptide concentrations higher than 5 μM): slightly reduced
cell viability (MTT) (HeLa cells [1]; concentrations higher than 40 μM (tested up to 160 μM)): all cells were killed
cytotoxicity (MTT cell viability) (HeLa cells [1]; incubated 30 minutes, concentrations up to 40 μM): no cytotoxicity was observed
cytotoxic effects in the uptake experiments (HeLa cells [2]): no cytotoxic effects could be observed
